Results on three molecules are retold here after patent US20200283478A1.

The target of this experiment is PCSK9Δhelix (human). Kind of experiment: phage spot ELISA. On the technique in general: ELISA stands for enzyme-linked immunosorbent assay.
Chain of PCSK9Δhelix (human) (prodomain, as listed by the source mutant limits assumed, chain 1 of 2): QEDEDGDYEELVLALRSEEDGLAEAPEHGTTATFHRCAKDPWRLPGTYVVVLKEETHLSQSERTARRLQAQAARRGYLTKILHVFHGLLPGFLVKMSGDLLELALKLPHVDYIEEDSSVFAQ
Chain of PCSK9Δhelix (human) (chain, as listed by the source mutant limits assumed, chain 2 of 2): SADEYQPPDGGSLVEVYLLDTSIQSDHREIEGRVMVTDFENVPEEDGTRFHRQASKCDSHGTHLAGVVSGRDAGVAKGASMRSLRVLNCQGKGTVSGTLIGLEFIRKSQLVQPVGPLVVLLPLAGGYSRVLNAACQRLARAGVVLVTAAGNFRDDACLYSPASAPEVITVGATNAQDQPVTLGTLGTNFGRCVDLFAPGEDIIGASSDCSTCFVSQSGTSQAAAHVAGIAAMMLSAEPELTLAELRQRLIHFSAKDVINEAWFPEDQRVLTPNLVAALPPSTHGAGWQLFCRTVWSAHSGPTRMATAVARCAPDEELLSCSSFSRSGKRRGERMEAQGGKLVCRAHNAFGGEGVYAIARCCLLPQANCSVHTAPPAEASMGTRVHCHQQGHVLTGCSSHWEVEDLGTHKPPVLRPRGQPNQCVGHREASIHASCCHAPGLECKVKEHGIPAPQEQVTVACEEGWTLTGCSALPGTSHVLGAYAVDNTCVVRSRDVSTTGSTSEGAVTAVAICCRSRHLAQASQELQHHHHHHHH

On to SGDFIPWNLVRIGLLR [SEQ ID NO 385], for which the ELISA was determined as 0.657 and the s/n ratio worked out at 5.01.
Molecule SGVCSDHYIGGKEVRC [SEQ ID NO 378] displayed an ELISA of 1.21 and a s/n of 1.85.
Consider TAFTSWEEYLDWVGSGCMEAWQCSLA [SEQ ID NO 337], for which the ELISA amounted to 2.76 and the s/n ratio came to 1.49.
